# Starred links: 1 amine or outer side, 2 acyl side, 3 side chain; linkers in the order of their positions; H or OH if unused. Non-standard residues stand in square brackets, D forms with d. Groups on a side chain read outwards from the residue. *: point of attachment. TTDS = 4-[3-[2-[2-(3-aminopropoxy)ethoxy]ethoxy]propylamino]-4-oxo-butanoyl; γGlu = O=C(O)[C@H](CCC(=O)[*:2])N[*:1]; Stearoyl = CCCCCCCCCCCCCCCCCC(=O)*; Palmitoyl = CCCCCCCCCCCCCCCC(=O)*; AEEA = NCCOCCOCC(=O)O; Aib = CC(C)(N)C(=O)O
# T1: RXFP1 receptor (endogenous, on OVCAR5 cells) (UniProt Q9HBX9 1-757, limits assumed)
# T1 sequence (looked up): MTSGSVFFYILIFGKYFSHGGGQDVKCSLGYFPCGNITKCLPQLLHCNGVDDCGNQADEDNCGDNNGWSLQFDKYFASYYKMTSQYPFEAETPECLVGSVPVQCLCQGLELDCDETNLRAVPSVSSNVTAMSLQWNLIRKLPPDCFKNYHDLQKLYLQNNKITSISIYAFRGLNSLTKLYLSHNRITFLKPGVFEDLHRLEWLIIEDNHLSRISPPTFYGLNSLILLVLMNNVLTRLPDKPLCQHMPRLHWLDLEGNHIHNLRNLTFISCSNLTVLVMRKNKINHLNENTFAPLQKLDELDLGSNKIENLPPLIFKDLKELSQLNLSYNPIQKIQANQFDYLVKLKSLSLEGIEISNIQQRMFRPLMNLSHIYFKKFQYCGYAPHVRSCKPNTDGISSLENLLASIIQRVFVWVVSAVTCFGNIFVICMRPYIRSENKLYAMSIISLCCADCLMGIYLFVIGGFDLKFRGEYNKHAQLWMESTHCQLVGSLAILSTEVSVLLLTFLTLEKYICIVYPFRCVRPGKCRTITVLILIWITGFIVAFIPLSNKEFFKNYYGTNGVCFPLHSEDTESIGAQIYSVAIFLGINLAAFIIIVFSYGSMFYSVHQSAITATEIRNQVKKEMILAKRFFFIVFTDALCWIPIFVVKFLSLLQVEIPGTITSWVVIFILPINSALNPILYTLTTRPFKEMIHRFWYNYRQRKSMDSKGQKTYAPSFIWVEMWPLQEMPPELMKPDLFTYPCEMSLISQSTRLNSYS
# Molecular target: T1, RXFP1 receptor (endogenous, on OVCAR5 …)
# Experiment: cell-based or functional assay
"EC50 (nM), OVCAR 5 cells (cAMP)","EMax, OVCAR 5 cells (cAMP)",Binder
1.45 nM,97%,Ac-LEGREKVRAK(Ac)I[Aib][Aib]EGK([TTDS-TTDS-TTDS-γGlu-γGlu-γGlu-Palmitoyl])SQWS[Aib]RKK(Ac)-NH2 [peptide of SEQ ID NO: 63]
0.6 nM,98%,Ac-LEGREKVRAK(Ac)I[Aib][Aib]EGK([TTDS-TTDS-TTDS-γGlu-γGlu-γGlu-γGlu-Palmitoyl])STWS[Aib]RKK(Ac)-NH2 [peptide of SEQ ID NO: 62]
1.19 nM,95%,Ac-LEGREKVRK(Ac)QI[Aib][Aib]EGK([TTDS-TTDS-TTDS-γGlu-γGlu-γGlu-Palmitoyl])STWS[Aib]RKK(Ac)-NH2 [peptide of SEQ ID NO: 65]
0.52 nM,95%,Ac-LEGREKVRAK(Ac)I[Aib][Aib]EGK([TTDS-TTDS-TTDS-γGlu-γGlu-γGlu-Palmitoyl])SRWS[Aib]RKK(Ac)-NH2 [peptide of SEQ ID NO: 64]

# Second part, the binder before the results:
Binder,"EC50 (nM), OVCAR 5 cells (cAMP)","EMax, OVCAR 5 cells (cAMP)"
Ac-LEGREKVRAK(Ac)I[Aib][Aib]EGK([AEEA-AEEA-AEEA-AEEA-γGlu-γGlu-γGlu-Palmitoyl])STWS[Aib]RKK(Ac)-NH2 (SMILES CCCCCCCCCCCCCCCC(=O)N[C@@H](CCC(=O)N[C@@H](CCC(=O)N[C@@H](CCC(=O)NCCOCCOCC(=O)NCCOCCOCC(=O)NCCOCCOCC(=O)NCCOCCOCC(=O)NCCCC[C@H](NC(=O)CNC(=O)[C@H](CCC(=O)O)NC(=O)C(C)(C)NC(=O)C(C)(C)NC(=O)[C@@H](NC(=O)[C@H](CCCCNC(C)=O)NC(=O)[C@H](C)NC(=O)[C@H](CCCNC(=N)N)NC(=O)[C@@H](NC(=O)[C@H](CCCCN)NC(=O)[C@H](CCC(=O)O)NC(=O)[C@H](CCCNC(=N)N)NC(=O)CNC(=O)[C@H](CCC(=O)O)NC(=O)[C@H](CC(C)C)NC(C)=O)C(C)C)[C@@H](C)CC)C(=O)N[C@@H](CO)C(=O)N[C@H](C(=O)N[C@@H](Cc1c[nH]c2ccccc12)C(=O)N[C@@H](CO)C(=O)NC(C)(C)C(=O)N[C@@H](CCCNC(=N)N)C(=O)N[C@@H](CCCCN)C(=O)N[C@@H](CCCCNC(C)=O)C(N)=O)[C@@H](C)O)C(=O)O)C(=O)O)C(=O)O) [peptide of SEQ ID NO: 5],9.1 nM,85%
Ac-LEGREKVRAK(Ac)I[Aib][Aib]EGK([TTDS-TTDS-γGlu-γGlu-γGlu-Stearoyl])STWS[Aib]RKK(Ac)-NH2 [peptide of SEQ ID NO: 6],0.27 nM,95%
Ac-LEGREKVRAK(Ac)I[Aib][Aib]EGK([TTDS-TTDS-TTDS-TTDS-γGlu-γGlu-γGlu-Stearoyl])STFS[Aib]RKK(Ac)-NH2 [peptide of SEQ ID NO: 59],0.09 nM,99%
Ac-LEGREKVRAK(Ac)I[Aib][Aib]EGK([TTDS-TTDS-TTDS-γGlu-γGlu-γGlu-Stearoyl])STFS[Aib]RKK(Ac)-NH2 [peptide of SEQ ID NO: 61],0.1 nM,97%
Ac-LEGREKVRAK(Ac)I[Aib][Aib]EGK([TTDS-TTDS-γGlu-γGlu-γGlu-Stearoyl])STFS[Aib]RKK(Ac)-NH2 [peptide of SEQ ID NO: 60],0.15 nM,95%
Ac-LEGREKVRAK(Ac)I[Aib][Aib]EGK([TTDS-TTDS-TTDS-γGlu-γGlu-γGlu-Palmitoyl])STWS[Aib]RKK(Ac)-NH2 [peptide of SEQ ID NO: 1],1.5 nM,99%

# Reference: patent US20190233494A1 (Sanofi, published 2019)
